The Human Domainome abundance scans (Beltran et al. 2025)
± gives the uncertainty stated by the source.

B1: Homeobox protein cut-like 1, residues 548 to 629; numbered along this chain, P39880 (parent)
chain: GEEMDTAEIARQVKEQLIKHNIGQRIFGHYVLGLSQGSVSEILARPKPWNKLTVRGKEPFHKMKQFLSDEQNILALRSIQGR

Variants of: B1
Experiment: abundance fitness (aPCA) (normalised: wild type 0, dead -1); higher = more abundant; growth selection in yeast, the domain comes from the species named
Settings: Homo sapiens

Point of comparison: GEEMDTAEIARQVKEQLIKHNIIQRIFGHYVLGLSQGSVSEILARPKPWNKLTVRGKEPFHKMKQFLSDEQNILALRSIQGR [G23I], abundance fitness -0.309 ± 0.085. Against it:
- GEEMDTAEIARQVKEQLIKHFIGQRIFGHYVLGLSQGSVSEILARPKPWNKLTVRGKEPFHKMKQFLSDEQNILALRSIQGR [N21F] — lower, -0.534 ± 0.12
- GEEMDTAEIARQVKEQLIKHGIGQRIFGHYVLGLSQGSVSEILARPKPWNKLTVRGKEPFHKMKQFLSDEQNILALRSIQGR [N21G] — higher, 0.025 ± 0.023
- GEEMDTAEIARQVKEQLIKHHIGQRIFGHYVLGLSQGSVSEILARPKPWNKLTVRGKEPFHKMKQFLSDEQNILALRSIQGR [N21H] — higher, 0.009 ± 0.063
- GEEMDTAEIARQVKEQLIKHIIGQRIFGHYVLGLSQGSVSEILARPKPWNKLTVRGKEPFHKMKQFLSDEQNILALRSIQGR [N21I] — lower, -1.06 ± 0.19
- GEEMDTAEIARQVKEQLIKHKIGQRIFGHYVLGLSQGSVSEILARPKPWNKLTVRGKEPFHKMKQFLSDEQNILALRSIQGR [N21K] — higher, -0.055 ± 0.033
- GEEMDTAEIARQVKEQLIKHMIGQRIFGHYVLGLSQGSVSEILARPKPWNKLTVRGKEPFHKMKQFLSDEQNILALRSIQGR [N21M] — within error, -0.378 ± 0.045
- GEEMDTAEIARQVKEQLIKHPIGQRIFGHYVLGLSQGSVSEILARPKPWNKLTVRGKEPFHKMKQFLSDEQNILALRSIQGR [N21P] — lower, -0.72 ± 0.063
- GEEMDTAEIARQVKEQLIKHQIGQRIFGHYVLGLSQGSVSEILARPKPWNKLTVRGKEPFHKMKQFLSDEQNILALRSIQGR [N21Q] — higher, -0.021 ± 0.033
- GEEMDTAEIARQVKEQLIKHRIGQRIFGHYVLGLSQGSVSEILARPKPWNKLTVRGKEPFHKMKQFLSDEQNILALRSIQGR [N21R] — higher, -0.115 ± 0.023
- GEEMDTAEIARQVKEQLIKHSIGQRIFGHYVLGLSQGSVSEILARPKPWNKLTVRGKEPFHKMKQFLSDEQNILALRSIQGR [N21S] — higher, -0.084 ± 0.032
- GEEMDTAEIARQVKEQLIKHTIGQRIFGHYVLGLSQGSVSEILARPKPWNKLTVRGKEPFHKMKQFLSDEQNILALRSIQGR [N21T] — within error, -0.305 ± 0.035
- GEEMDTAEIARQVKEQLIKHVIGQRIFGHYVLGLSQGSVSEILARPKPWNKLTVRGKEPFHKMKQFLSDEQNILALRSIQGR [N21V] — lower, -0.518 ± 0.033
- GEEMDTAEIARQVKEQLIKHWIGQRIFGHYVLGLSQGSVSEILARPKPWNKLTVRGKEPFHKMKQFLSDEQNILALRSIQGR [N21W] — lower, -0.759 ± 0.053
- GEEMDTAEIARQVKEQLIKHYIGQRIFGHYVLGLSQGSVSEILARPKPWNKLTVRGKEPFHKMKQFLSDEQNILALRSIQGR [N21Y] — within error, -0.469 ± 0.12
- GEEMDTAEIARQVKEQLIKHNCGQRIFGHYVLGLSQGSVSEILARPKPWNKLTVRGKEPFHKMKQFLSDEQNILALRSIQGR [I22C] — lower, -0.491 ± 0.062
- GEEMDTAEIARQVKEQLIKHNDGQRIFGHYVLGLSQGSVSEILARPKPWNKLTVRGKEPFHKMKQFLSDEQNILALRSIQGR [I22D] — lower, -0.941 ± 0.12
- GEEMDTAEIARQVKEQLIKHNFGQRIFGHYVLGLSQGSVSEILARPKPWNKLTVRGKEPFHKMKQFLSDEQNILALRSIQGR [I22F] — within error, -0.49 ± 0.15
- GEEMDTAEIARQVKEQLIKHNGGQRIFGHYVLGLSQGSVSEILARPKPWNKLTVRGKEPFHKMKQFLSDEQNILALRSIQGR [I22G] — lower, -0.86 ± 0.042
- GEEMDTAEIARQVKEQLIKHNKGQRIFGHYVLGLSQGSVSEILARPKPWNKLTVRGKEPFHKMKQFLSDEQNILALRSIQGR [I22K] — lower, -0.931 ± 0.084
- GEEMDTAEIARQVKEQLIKHNLGQRIFGHYVLGLSQGSVSEILARPKPWNKLTVRGKEPFHKMKQFLSDEQNILALRSIQGR [I22L] — within error, -0.239 ± 0.032
- GEEMDTAEIARQVKEQLIKHNMGQRIFGHYVLGLSQGSVSEILARPKPWNKLTVRGKEPFHKMKQFLSDEQNILALRSIQGR [I22M] — lower, -0.612 ± 0.058
- GEEMDTAEIARQVKEQLIKHNNGQRIFGHYVLGLSQGSVSEILARPKPWNKLTVRGKEPFHKMKQFLSDEQNILALRSIQGR [I22N] — lower, -0.701 ± 0.12
- GEEMDTAEIARQVKEQLIKHNPGQRIFGHYVLGLSQGSVSEILARPKPWNKLTVRGKEPFHKMKQFLSDEQNILALRSIQGR [I22P] — lower, -0.718 ± 0.056
- GEEMDTAEIARQVKEQLIKHNQGQRIFGHYVLGLSQGSVSEILARPKPWNKLTVRGKEPFHKMKQFLSDEQNILALRSIQGR [I22Q] — lower, -0.797 ± 0.067
- GEEMDTAEIARQVKEQLIKHNSGQRIFGHYVLGLSQGSVSEILARPKPWNKLTVRGKEPFHKMKQFLSDEQNILALRSIQGR [I22S] — lower, -0.801 ± 0.059
- GEEMDTAEIARQVKEQLIKHNTGQRIFGHYVLGLSQGSVSEILARPKPWNKLTVRGKEPFHKMKQFLSDEQNILALRSIQGR [I22T] — lower, -0.687 ± 0.052
- GEEMDTAEIARQVKEQLIKHNVGQRIFGHYVLGLSQGSVSEILARPKPWNKLTVRGKEPFHKMKQFLSDEQNILALRSIQGR [I22V] — higher, -0.071 ± 0.03
- GEEMDTAEIARQVKEQLIKHNYGQRIFGHYVLGLSQGSVSEILARPKPWNKLTVRGKEPFHKMKQFLSDEQNILALRSIQGR [I22Y] — lower, -0.916 ± 0.16
- GEEMDTAEIARQVKEQLIKHNIAQRIFGHYVLGLSQGSVSEILARPKPWNKLTVRGKEPFHKMKQFLSDEQNILALRSIQGR [G23A] — higher, -0.004 ± 0.024
- GEEMDTAEIARQVKEQLIKHNICQRIFGHYVLGLSQGSVSEILARPKPWNKLTVRGKEPFHKMKQFLSDEQNILALRSIQGR [G23C] — higher, -0.054 ± 0.051
- GEEMDTAEIARQVKEQLIKHNIDQRIFGHYVLGLSQGSVSEILARPKPWNKLTVRGKEPFHKMKQFLSDEQNILALRSIQGR [G23D] — higher, 0.114 ± 0.043
- GEEMDTAEIARQVKEQLIKHNIFQRIFGHYVLGLSQGSVSEILARPKPWNKLTVRGKEPFHKMKQFLSDEQNILALRSIQGR [G23F] — within error, -0.293 ± 0.076
- GEEMDTAEIARQVKEQLIKHNIHQRIFGHYVLGLSQGSVSEILARPKPWNKLTVRGKEPFHKMKQFLSDEQNILALRSIQGR [G23H] — higher, -0.009 ± 0.067
